Target: the molecule itself
Test: crystal structure; apo BhMntR; sitting-drop vapor diffusion at 296 K, 0.1 M sodium/potassium phosphate pH 6.2, 0.4 M magnesium formate; 2.3 Å; two subunits in the asymmetric unit

B1: manganese transport regulator MntR from Bacillus halodurans (natural protein, UniProt Q9K943 1-139, looked up)
chain: MPTPSMEDYLERIYLLIEEKGYARVSDIAEALEVHPSSVTKMVQKLDKSDYLVYERYRGLILTAKGKKIGKRLVYRHDLLEDFLKMIGVDSDHIYEDVEGIEHHLSWDAIDRIGDLVQYFQEDPSRLNDLREVQKKNEE
notes: MntR homologue BH2807 of Bacillus halodurans, a protein of 139 amino acids; gene amplified from genomic DNA into pET-28b(+) NdeI/XhoI; subunit described as residues 1-71 (domain 1) and 72-139 (domain 2); Homodimer in both crystal forms; also called BhMntR; BH2807; source: E. coli BL21(DE3) Star pLysS, purified (Ni IMAC, Superdex 200 gel filtration)
  stoichiometry N: 2
